Target: SARS-CoV-2 spike S1+S2 ECD-His (SARS-CoV-2 (2019-nCoV), UniProt P0DTC2 16-1213)
Assay: SPR

Binder: CACCAATATTTACGTTCTACTCTCCAATA (ssDNA, 5' BiotinTEG) [apt-NS]
- binding result: no binding
